# Assay results published in patent US20140087995A1 (published 2014).
# Numbered stars: 1 amine (or outer) side, 2 acyl side, 3 side chain; on linkers, the order of the positions; unused ones are H or OH. Bridge positions count the residues as written; N and C are the ends. Side chains are listed from the residue outwards. Ends that are not written are not given here. * marks the point of attachment. C20 diacid = O=C(O)CCCCCCCCCCCCCCCCCCC(=O)*; γGlu = O=C(O)[C@H](CCC(=O)[*:2])N[*:1]; AEEA = NCCOCCOCC(=O)O
# T1: rat calcitonin receptor (rat, UniProt P32214 25-516)
# T1 construct: whole, on cells; Used as membranes prepared from BHK tk'ts 13 cells transiently transfected with the rat calcitonin receptor (Assay VIII); also called rCTR; rat calcitonin (a) receptor
# T1 sequence (looked up): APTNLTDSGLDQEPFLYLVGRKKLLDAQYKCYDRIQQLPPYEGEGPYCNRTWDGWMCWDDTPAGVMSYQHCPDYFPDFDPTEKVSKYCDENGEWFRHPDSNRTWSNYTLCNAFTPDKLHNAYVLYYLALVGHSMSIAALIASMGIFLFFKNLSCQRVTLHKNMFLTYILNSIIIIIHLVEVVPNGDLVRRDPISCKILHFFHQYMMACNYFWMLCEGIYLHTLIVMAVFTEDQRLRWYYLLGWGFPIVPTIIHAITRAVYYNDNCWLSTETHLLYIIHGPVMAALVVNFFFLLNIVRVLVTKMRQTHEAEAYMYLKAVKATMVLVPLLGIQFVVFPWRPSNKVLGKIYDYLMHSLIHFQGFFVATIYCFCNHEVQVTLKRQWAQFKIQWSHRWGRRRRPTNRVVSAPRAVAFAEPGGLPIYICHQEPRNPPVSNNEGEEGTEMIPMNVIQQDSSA
# T2: human calcitonin receptor (human, UniProt P30988 25-474)
# T2 construct: whole, on cells; Used as membranes prepared from a BHK tk'ts 13 cell line stably transfected with the human calcitonin receptor (Assay VII); also called hCTR; hCT
# T2 sequence (looked up): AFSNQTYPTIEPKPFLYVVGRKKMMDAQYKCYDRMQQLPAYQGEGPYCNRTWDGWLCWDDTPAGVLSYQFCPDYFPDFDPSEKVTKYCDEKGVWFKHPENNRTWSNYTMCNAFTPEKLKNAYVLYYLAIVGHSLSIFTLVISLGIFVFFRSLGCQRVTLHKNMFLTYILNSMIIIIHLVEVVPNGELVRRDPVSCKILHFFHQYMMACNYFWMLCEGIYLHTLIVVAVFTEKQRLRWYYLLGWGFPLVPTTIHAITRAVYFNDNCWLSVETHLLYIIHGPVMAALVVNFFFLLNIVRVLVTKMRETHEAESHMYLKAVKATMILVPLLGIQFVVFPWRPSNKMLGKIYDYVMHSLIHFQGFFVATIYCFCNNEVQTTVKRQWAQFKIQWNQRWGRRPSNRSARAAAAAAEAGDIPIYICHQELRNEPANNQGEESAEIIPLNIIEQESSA
# T3: rat amylin receptor (rat calcitonin receptor + rat RAMP 3) (rat, UniProt P32214 25-516; Q9JJ73 23-147)
# T3 construct: whole, on cells; Used as membranes prepared from BHK tk'ts 13 cells transiently transfected with rat calcitonin receptor and rat RAMP 3 (Assay VI); also called rAmylin-R; rat amylin 3(a) receptor
# T3 sequence (looked up) 1: T1 sequence (looked up)
# T3 sequence (looked up) 2: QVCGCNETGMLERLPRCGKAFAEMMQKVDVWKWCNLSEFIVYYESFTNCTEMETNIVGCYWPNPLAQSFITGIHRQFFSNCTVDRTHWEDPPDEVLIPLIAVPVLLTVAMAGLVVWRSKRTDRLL
# B1: N^ε1-[2-[2-[2-[[(4S)-4-carboxy-4-(19-carboxynonadecanoylamino)butanoyl]amino]ethoxy]ethoxy]acetyl]-[Arg17,Pro21,Pro27,His34]-h-amylin (peptide)
# peptide: K([AEEA-γGlu-C20 diacid])CNTATCATQRLANFLRHSSPNFGAIPSSTNVGHNTY-NH2
# modifications: disulfide 2-7; N-terminus assumed
# SMILES: CC[C@H](C)[C@H](NC(=O)[C@H](C)NC(=O)CNC(=O)[C@H](Cc1ccccc1)NC(=O)[C@H](CC(N)=O)NC(=O)[C@@H]1CCCN1C(=O)[C@H](CO)NC(=O)[C@H](CO)NC(=O)[C@H](Cc1c[nH]cn1)NC(=O)[C@H](CCCNC(=N)N)NC(=O)[C@H](CC(C)C)NC(=O)[C@H](Cc1ccccc1)NC(=O)[C@H](CC(N)=O)NC(=O)[C@H](C)NC(=O)[C@H](CC(C)C)NC(=O)[C@H](CCCNC(=N)N)NC(=O)[C@H](CCC(N)=O)NC(=O)[C@@H](NC(=O)[C@H](C)NC(=O)[C@@H]1CSSC[C@H](NC(=O)[C@@H](N)CCCCNC(=O)COCCOCCNC(=O)CC[C@H](NC(=O)CCCCCCCCCCCCCCCCCCC(=O)O)C(=O)O)C(=O)N[C@@H](CC(N)=O)C(=O)N[C@@H]([C@@H](C)O)C(=O)N[C@@H](C)C(=O)N[C@@H]([C@@H](C)O)C(=O)N1)[C@@H](C)O)C(=O)N1CCC[C@H]1C(=O)N[C@@H](CO)C(=O)N[C@@H](CO)C(=O)N[C@H](C(=O)N[C@@H](CC(N)=O)C(=O)N[C@H](C(=O)NCC(=O)N[C@@H](Cc1c[nH]cn1)C(=O)N[C@@H](CC(N)=O)C(=O)N[C@H](C(=O)N[C@@H](Cc1ccc(O)cc1)C(N)=O)[C@@H](C)O)C(C)C)[C@@H](C)O
# notes: Analogue of human amylin; also called compound 76
# B2: N^ε1-[2-[2-[2-[[(4S)-4-carboxy-4-(19-carboxynonadecanoylamino)butanoyl]amino]ethoxy]ethoxy]acetyl]-[Arg17,Pro21,Pro27,Pro28,Pro31]-h-amylin (peptide)
# peptide: K([AEEA-γGlu-C20 diacid])CNTATCATQRLANFLRHSSPNFGAIPPSTPVGSNTY-NH2
# modifications: disulfide 2-7
# notes: Analogue of human amylin; also called compound 53
# B3: N^ε1-[2-[2-[2-[[(4S)-4-carboxy-4-(19-carboxynonadecanoylamino)butanoyl]amino]ethoxy]ethoxy]acetyl]-[Arg17,Pro21,Pro27,Pro28,Pro34]-h-amylin (peptide)
# peptide: K([AEEA-γGlu-C20 diacid])CNTATCATQRLANFLRHSSPNFGAIPPSTNVGPNTY-NH2
# modifications: disulfide 2-7; N-terminus assumed
# SMILES: CC[C@H](C)[C@H](NC(=O)[C@H](C)NC(=O)CNC(=O)[C@H](Cc1ccccc1)NC(=O)[C@H](CC(N)=O)NC(=O)[C@@H]1CCCN1C(=O)[C@H](CO)NC(=O)[C@H](CO)NC(=O)[C@H](Cc1c[nH]cn1)NC(=O)[C@H](CCCNC(=N)N)NC(=O)[C@H](CC(C)C)NC(=O)[C@H](Cc1ccccc1)NC(=O)[C@H](CC(N)=O)NC(=O)[C@H](C)NC(=O)[C@H](CC(C)C)NC(=O)[C@H](CCCNC(=N)N)NC(=O)[C@H](CCC(N)=O)NC(=O)[C@@H](NC(=O)[C@H](C)NC(=O)[C@@H]1CSSC[C@H](NC(=O)[C@@H](N)CCCCNC(=O)COCCOCCNC(=O)CC[C@H](NC(=O)CCCCCCCCCCCCCCCCCCC(=O)O)C(=O)O)C(=O)N[C@@H](CC(N)=O)C(=O)N[C@@H]([C@@H](C)O)C(=O)N[C@@H](C)C(=O)N[C@@H]([C@@H](C)O)C(=O)N1)[C@@H](C)O)C(=O)N1CCC[C@H]1C(=O)N1CCC[C@H]1C(=O)N[C@@H](CO)C(=O)N[C@H](C(=O)N[C@@H](CC(N)=O)C(=O)N[C@H](C(=O)NCC(=O)N1CCC[C@H]1C(=O)N[C@@H](CC(N)=O)C(=O)N[C@H](C(=O)N[C@@H](Cc1ccc(O)cc1)C(N)=O)[C@@H](C)O)C(C)C)[C@@H](C)O
# notes: Analogue of human amylin; also called compound 55
# Biological target: T1, rat calcitonin receptor
# Assay: IC50 on rat CTR divided by IC50 on rat amylin receptor (Assays VIII/VI)
row,Ratio rCT/rAmylin binding,Binder
1,56.8,B1
2,130,B2
3,77.2,B3

# Biological target: T2, human calcitonin receptor
# Assay: IC50 on human CTR divided by IC50 on human amylin receptor (Assays VII/V)
# Method: The resulting pellet was resuspended, homogenized and centrifuged (20.000 rpm, 15 min) in a buffer containing 20 mM Na-HEPES and 0.1 mM EDTA (pH 7.4, buffer 2). The resulting pellet was resuspended in buffer 2 and protein concentration was measured (BCA protein Assay, Pierce). The homogenate was kept cold during the whole procedure. The membranes were kept at −80° C. until use. The assay was performed in a 384 well Optiplate (PerkinElmer) in a total volume of 40 ul. Membranes were mixed with SPA beads. Final concentration of membranes 35 ng/μL final and SPA beads was 0.05 mg/well. Test-compounds were dissolved in DMSO and further diluted in assay buffer (50 mM Hepes, pH 7.4, 1 mM CaCl2, 5 mM MgCl₂, 0.1% OA and 0.02% Tween20). […] The final mixture was incubated with shaking at 400 rpm for 120 min at 25° C. prior to centrifugation (1500 rpm, 10 min). Samples were analyzed on TopCounter™ (Packard). The IC₅₀ was calculated using (one site binding competition analysis) GraphPad Prism5 as a measure of receptor affinity.
# Membranes were prepared in the following way; the cells were rinsed with PBS and incubated with Versene for approximately 5 min before harvesting. The cells were flushed with PBS and the cell-suspension was centrifuged for 5 min at 1000 rpm. Cells were homogenized (Ultrathurrax) in a buffer containing 20 mM Na-HEPES and 10 mM EDTA (pH 7.4) and centrifuged at 20.000 rpm for 15 min. The resulting pellet was resuspended, homogenized and centrifuged (20.000 rpm, 15 min) in a buffer containing 20 mM Na-HEPES and 0.1 mM EDTA (pH 7.4, buffer 2). The resulting pellet was resuspended in buffer 2 and protein concentration was measured (BCA protein Assay, Pierce). The homogenate was kept cold during the whole procedure. The membranes were kept at −80° C. until use. Assay was performed in a 384 well Optiplate (PerkinElmer) in a total volume of 40 ul. Membranes were mixed with SPA beads.
row,Ratio hCT/hAmylin binding,Binder
1,80,B1
2,104,B2
3,51.8,B3

# Biological target: T1, rat calcitonin receptor
# Assay: SPA competition with 125I-calcitonin, membranes of BHK cells with rat CTR (Assay VIII)
row,IC50,Binder
1,38.9 nM,B1
2,10.9 nM,B2
3,6.25 nM,B3

# Biological target: T3, rat amylin receptor (rat calcitonin …)
# Assay: SPA competition with 125I-rat amylin, membranes of BHK cells with rat CTR + rat RAMP3 (Assay VI)
row,IC50,Binder
1,0.686 nM,B1
2,0.084 nM,B2
3,0.081 nM,B3
